Laboratory results published in US20070087405.

Target: β subunit of human prolyl 4-hydroxylase, P07237
Sequence (P07237 18-508): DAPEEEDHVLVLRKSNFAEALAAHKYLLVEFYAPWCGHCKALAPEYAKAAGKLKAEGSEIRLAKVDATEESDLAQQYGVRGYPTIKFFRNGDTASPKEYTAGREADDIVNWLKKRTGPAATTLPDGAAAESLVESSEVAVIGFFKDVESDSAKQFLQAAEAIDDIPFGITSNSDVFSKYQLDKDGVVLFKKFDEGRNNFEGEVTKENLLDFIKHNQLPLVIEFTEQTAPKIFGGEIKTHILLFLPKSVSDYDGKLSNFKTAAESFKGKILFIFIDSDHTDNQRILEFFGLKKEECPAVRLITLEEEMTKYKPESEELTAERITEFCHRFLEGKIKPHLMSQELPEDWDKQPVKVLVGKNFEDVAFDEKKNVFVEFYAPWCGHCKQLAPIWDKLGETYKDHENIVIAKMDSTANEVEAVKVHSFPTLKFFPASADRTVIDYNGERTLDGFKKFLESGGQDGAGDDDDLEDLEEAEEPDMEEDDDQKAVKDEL

B1: α subunit of human prolyl 4-hydroxylase (protein)
chain: HPGFFTSIGQMTDLIHTEKDLVTSLKDYIKAEEDKLEQIKKWAEKLDRLTSTATKDPEGFVGHPVNAFKLMKRLNTEWSELENLVLKDMSDGFISNLTIQRQYFPNDEDQVGAAKALLRLQDTYNLDTDTISKGNLPGVKHKSFLTAEDCFELGKVAYTEADYYHTELWMEQALRQLDEGEISTIDKVSVLDYLSYAVYQQGDLDKALLLTKKLLELDPEHQRANGNLKYFEYIMAKEKDVNKSASDDQSDQKTTPKKKGVAVDYLPERQKYEMLCRGEGIKMTPRRQKKLFCRYHDGNRNPKFILAPAKQEDEWDKPRIIRFHDIISDAEIEIVKDLAKPRLRRATISNPITGDLETVHYRISKSAWLSGYENPVVSRINMRIQDLTGLDVSTAEELQVANYGVGGQYEPHFDFARKDEPDAFKELGTGNRIATWLFYMSDVSAGGATVFPEVGASVWPKKGTAVFWYNLFASGEGDYSTRHAACPVLVGNKWVSNKWLHERGQEFRRPCTLSELE
  prolyl 4-hydroxylase activity (decarboxylation of 2-oxo[1-14C]glutarate) and trimeric assembly of mC21: These data suggest that the P4α and P4β are capable of assembling into an active α2β2 tetramer in the Drosophila expression system
